In patent publication US20250340630A1 (SICHUAN KELUN BIOTECH BIOPHARMACEUTICAL, published 2025):
Where two headings read alike, the source gives them in different places.

Columns and labels:
human Claudin18.2 [1] = molecular target: T1, human Claudin18.2 (human, UniProt P56856-2 1-261); assay: cellular ELISA on NUGC-4 cells (endogenous human Claudin18.2)
T1 construct: whole, on cells; Four-transmembrane protein, always presented on cells (transfected lines or NUGC-4 with endogenous expression); also called CLDN18.2
Method: (§1) The cells were resuspended and adjusted to 2×10⁵/mL and 100 μL of the resuspension was plated into 96 well plate and incubated overnight at 37° C. The next day, the media was removed, and the plate was washed with PBS once. 100 μL/well 4% formaldehyde was added to the plate. After 30 min of incubation at room temperature, formaldehyde was removed, followed by washing twice with PBS. Blocking buffer (PBS containing 2% BSA) was then added to the plate at 100 μL/well, and incubated at 37° C. for 2 h. After removal of blocking buffer, 100 μL/well of serially diluted antibodies (starting from 1 μM, with 4-fold dilution, for a total of 11 concentrations) were added to the corresponding wells, which were incubated at 37° C. for 2h afterwards. The plate was washed with 250 μL PBST for 5 times, and was allowed to stand for 2 min each time. […] The plate was incubated at 37° C. for 1 h and washed with 250 μL PBST 6 times, wherein the plate was allowed to stand for 2 min each time. 100 μL/well of TMB solution (Thermo, 34029) was added. The reactions were incubated at 37° C. for 20 min and stopped with 50 μL 2 mol/L H₂SO₄. The absorbance at 450 nm was read on a plate reader (MD, SpectraMax M2) and the results were subjected to curve fitting by Graphpad Prism.

human Claudin18.2 [2] = molecular target: T1, human Claudin18.2; assay: cell-based or functional assay
human Claudin18.2 [3] = molecular target: T1, human Claudin18.2; assay: cellular ELISA on fixed L929-Claudin 18.2 cells
Method: as §1, with “Human Claudin18.2 is a four transmembrane protein and has a complex structure. Cellular ELISA was thus carried out to maintain the structure of Claudin18.2. […] The cells” for “The cells”

human Claudin18.2 [4] = molecular target: T1, human Claudin18.2; assay: cell-based or functional assay; remark: listed apart in the source
human Claudin18.2 [5] = molecular target: T1, human Claudin18.2; assay: cellular ELISA on fixed L929-Claudin 18.2 cells; remark: listed apart in the source
Method: as §1, with “Human Claudin18.2 is a four transmembrane protein and has a complex structure. Cellular ELISA was thus carried out to maintain the structure of Claudin18.2. […] The cells” for “The cells”, “was added. […] The absorbance” for “was added. The reactions were incubated at 37° C. for 20 min and stopped with 50 μL 2 mol/L H₂SO₄. The absorbance”

human Claudin18.2 [6] = molecular target: T1, human Claudin18.2; assay: flow cytometry (IntelliCyt) on Ba/F3-Claudin18.2 cells
Text: In order to evaluate the anti-Claudin18.2 humanized antibodies, codon optimized cDNAs of the heavy chains and the light chains of the candidate humanized antibodies from Example 6 were synthesized and ligated into pcDNA3.4 (by Nanjing Genscript Biotech Corporation). Expi293F cells (purchased from Thermo Incorporation) were co-transfected with pcDNA3.4 coding the heavy chain and light chain of each antibody. The antibodies were purified from the supernatant using protein A (MabSelect SuRe, GE). The affinity of the humanized antibodies to Claudin18.2 was determined using Ba/F3-Claudin18.2 cells which over-expressed human Claudin18.2. Ba/F3-Claudin18.2 cells (60000 in 10 ul buffer) were incubated with purified humanized antibodies on ice for 30 min, followed by washing with buffer (PBS+2% FBS) twice and addition of Alexa647-labeled goat-anti-human IgG Fc antibody (1:500 dilution). The cells were incubated on ice for another 30 min and analyzed by IntelliCyt.

human Claudin18.1 [7] = molecular target: T2, human Claudin18.1 (human, UniProt P56856 1-261); assay: flow cytometry, HEK293T-human Claudin 18.1 cells compared with HEK293T cells
T2 construct: whole, on cells; Presented on transfected cells; also called CLDN18.1
Method: The specificity of candidate antibodies was detected by FACS. […] After washing twice with PBS, the cells were resuspended with PBS containing 1% BSA. 300,000 cells for each cell line were added with the candidate antibodies at a final concentration of 1000 nM, mixed well, and incubated for 1 h at 4° C., protected from light. Then the cells were washed for three times with PBS and FITC-labeled anti-human Fc secondary antibody (BioLegend, 409322) was added, followed by 0.5h of incubation at 4° C. in the dark. Detection was performed by flow cytometry (Beckman, Cytoflex) after washing with PBS for three times.

human Claudin18.2 [8] = molecular target: T1, human Claudin18.2; assay: cell-based or functional assay; remark: listed apart in the source
human Claudin18.2 [9] = molecular target: T1, human Claudin18.2; assay: cell-based or functional assay; remark: listed apart in the source
human Claudin18.2 [10] = molecular target: T1, human Claudin18.2; assay: cellular ELISA on fixed L929-Claudin 18.2 cells; remark: listed apart in the source
Method: as §1, with “Human Claudin18.2 is a four transmembrane protein and has a complex structure. Cellular ELISA was thus carried out to maintain the structure of Claudin18.2. […] The cells” for “The cells”, “was added. […] The absorbance” for “was added. The reactions were incubated at 37° C. for 20 min and stopped with 50 μL 2 mol/L H₂SO₄. The absorbance”

human Claudin18.2 [11] = molecular target: T1, human Claudin18.2; assay: cell-based or functional assay; remark: listed apart in the source
human Claudin18.2 [12] = molecular target: T1, human Claudin18.2; assay: flow cytometry on HEK293T-Claudin 18.2 cells
Method: HEK293T-Claudin 18.2 cells were detached and centrifuged, followed by washing for twice with PBS. And then the cells were resuspended in PBS containing 1% BSA and were plated into 96-well tip bottom plate at 300000 cells per well in a volume of 50 μl for 20 wells in total. […] Human IgG was served as negative control. The reactions were mixed well and incubated for 1 h at 4° C. in the dark. Following by three times of washing with PBS, the FITC-labelled anti-human Fc secondary antibody (Biolegend, 409322) was added and incubated for 0.5h in the dark. Detection was performed by flow cytometry (Beckman, Cytoflex) after washing for three times with PBS.

human Claudin18.2 [13] = molecular target: T1, human Claudin18.2; assay: flow cytometry on Ba/F3-Claudin18.2 cells
human Claudin18.2 [14] = molecular target: T1, human Claudin18.2; assay: flow cytometry on Ba/F3-Claudin18.2 cells, purified mouse antibody
Method: (§2) The affinity of the candidates to Claudin18.2 was measured using FACS. […] Ba/F3-Claudin18.1 and Ba/F3-Claudin18.2 cells were incubated with the purified mouse antibodies at various concentrations on ice for 30 min and mouse IgG was used as negative control (Thermo Fisher, Cat: 31903), followed by washing with FACS buffer (PBS+2% FBS) twice.

human Claudin18.1 [15] = molecular target: T2, human Claudin18.1; assay: flow cytometry on Ba/F3-Claudin18.1 cells
Method: as §2

B1: humanized antibody 1E9.2-hz11 (antibody, human IgG1, kappa, V domains shown)
VH: EVQLVESGGGLVKPGGSLRLSCAASGFSFSNSAMSWVRQAPGKGLEWVSTISSGDSYTYYADSVKGRFTISRDNAKNSLYLQMNSLRAEDTAVYYCARQGYGNALDYWGQGTLVTVSS
VL: DIVMTQSPDSLAVSLGERATINCKSSQSLLNSGNQKNYLTWYQQKPGQPPKLLIYWSSTRESGVPDRFSGSGSGTDFTLTISSLQAEDFAVYYCQNDYYYPLTFGGGTKVEIKR
notes: human IgG1 / kappa
**Q.** For B1, which EC50 (human Claudin18.2 [1]) is on record?
**A.** 0.413 nM

**Q.** And the “CDC activity on HEK293T-Claudin 18.2 cells, fold against IMAB362” value (human Claudin18.2 [2])?
**A.** 3.5 fold

**Q.** What about the EC50 (human Claudin18.2 [3]) of the same binder?
**A.** 0.09 nM

**Q.** And the “Max Signal Value (OD450)” value (human Claudin18.2 [3])?
**A.** 0.8 OD450

**Q.** What about the “ADCC EC50 on HEK293T-Claudin 18.2 cells (NK92MI-CD16a, LDH)” value (human Claudin18.2 [4]) of the same binder?
**A.** 52.8 ng/mL

**Q.** What about the “ADCC EC50 on KATOIII-Claudin 18.2 cells (NK92MI-CD16a, LDH)” value (human Claudin18.2 [4]) of the same binder?
**A.** 3.59 ng/mL

**Q.** And the “ADCC EC50 on L929-Claudin 18.2 cells (NK92MI-CD16a, LDH)” value (human Claudin18.2 [4])?
**A.** 2.39 ng/mL

**Q.** And the “ADCC EC50 on NUGC-4 cells (NK92MI-CD16a, LDH)” value (human Claudin18.2 [4])?
**A.** 134 ng/mL

**Q.** And the EC50 (human Claudin18.2 [5])?
**A.** 0.1 nM

**Q.** And the “Max MFI” value (human Claudin18.2 [6])?
**A.** 1.13e+07 MFI

**Q.** Does B1 bind (human Claudin18.1 [7])?
**A.** no binding (tested: 1000 nM)

**Q.** And the “ADCC EC50, Ba/F3-Claudin18.2 target cells, NK-92MI_mCD16 effectors” value (human Claudin18.2 [8])?
**A.** 0.041 µg/mL

**Q.** What about the “ADCC Max killing rate %, Ba/F3-Claudin18.2 target cells” value (human Claudin18.2 [8]) of the same binder?
**A.** 60.2%

B2: IMAB362 (antibody, V domains shown)
VH: QVQLQQPGAELVRPGASVKLSCKASGYTFTSYWINWVKQRPGQGLEWIGNIYPSDSYTNYNQKFKDKATLTVDKSSSTAYMQLSSPTSEDSAVYYCTRSWRGNSFDYWGQGTTLTVSS
VL: DIVMTQSPSSLTVTAGEKVTMSCKSSQSLLNSGNQKNYLTWYQQKPGQPPKLLIYWASTRESGVPDRFTGSGSGTDFTLTISSVQAEDLAVYYCQNDYSYPFTFGSGTKLEIKR
**Q.** What does the source list for B2?
**A.** ADCC EC50 on HEK293T-Claudin 18.2 cells (NK92MI-CD16a, LDH) (human Claudin18.2 [9]): 57.7 ng/mL; EC50 (human Claudin18.2 [1]): ~664 nM; EC50 (human Claudin18.2 [10]): 0.15 nM; ADCC EC50 on HEK293T-Claudin 18.2 cells (NK92MI-CD16a, LDH) (human Claudin18.2 [4]): 33.6 ng/mL; ADCC EC50 on KATOIII-Claudin 18.2 cells (NK92MI-CD16a, LDH) (human Claudin18.2 [4]): 10.1 ng/mL; ADCC EC50 on L929-Claudin 18.2 cells (NK92MI-CD16a, LDH) (human Claudin18.2 [4]): 78.1 ng/mL; ADCC EC50 on NUGC-4 cells (NK92MI-CD16a, LDH) (human Claudin18.2 [4]): 1220 ng/mL; CDC EC50 on HEK293T-Claudin 18.2 cells (guinea pig serum, CellTiter-Glo) (human Claudin18.2 [11]): 3320 ng/mL; EC50 (human Claudin18.2 [5]): 0.18 nM; EC50 (human Claudin18.2 [12]): 8.22 nM; ADCC EC50, Ba/F3-Claudin18.2 target cells, NK-92MI_mCD16 effectors (human Claudin18.2 [8]): 0.351 µg/mL; ADCC Max killing rate %, Ba/F3-Claudin18.2 target cells (human Claudin18.2 [8]): 54.2%; EC50 (human Claudin18.2 [13]): 18 nM

B3: humanized antibody 2C6.9-hz21 (antibody, human IgG1, kappa, V domains shown)
VH: QVQLQESGPGLVKPSETLSLTCTVSGFSLTRYGVSWIRQPPGKGLEWIGVIWGEGNTNYNPSLKSRVTISKDSSKSQVSLKLSSVTAADTAVYYCARVNFGNALDYWGQGTLVTVSS
VL: DIVMTQSPDSLAVSLGERATINCKSSQSLLNSGNQKNYLTWYQQKPGQPPKLLIYWASTRDSGVPDRFSGSGSGTDFTLTISSLQAEDVAVYYCQNDFIFPLTFGGGTKVEIKR
notes: human IgG1 / kappa; also called 2C6.9.2hz21
**Q.** Which results are given for B3?
**A.** ADCC EC50 on HEK293T-Claudin 18.2 cells (NK92MI-CD16a, LDH) (human Claudin18.2 [9]): 67.7 ng/mL; EC50 (human Claudin18.2 [10]): 0.12 nM; EC50 (human Claudin18.2 [3]): 0.18 nM; Max Signal Value (OD450) (human Claudin18.2 [3]): 0.8 OD450; CDC EC50 on HEK293T-Claudin 18.2 cells (guinea pig serum, CellTiter-Glo) (human Claudin18.2 [11]): 1360 ng/mL; EC50 (human Claudin18.2 [12]): 5.77 nM; binding result (human Claudin18.1 [7]): no binding (tested: 1000 nM)

B4: humanized antibody 2C6.9-hz11 (antibody, human IgG1, kappa, V domains shown)
VH: QVQLQESGPGLVKPSETLSLTCTVSGFSLTRYGVSWIRQPPGKGLEWIGVIWGDGNTNYNPSLKSRVTISKDSSKSQVSLKLSSVTAADTAVYYCARVNFGNALDYWGQGTLVTVSS
VL: DIVMTQSPDSLAVSLGERATINCKSSQSLLNSGNQKNYLTWYQQKPGQPPKLLIYWASTRDSGVPDRFSGSGSGTDFTLTISSLQAEDVAVYYCQNDFIFPLTFGGGTKVEIKR
notes: Human IgG1 / kappa constant regions; also called 2C6.9.2hz11
**Q.** With B4 as the binder, how does the EC50 (human Claudin18.2 [3]) read?
**A.** 0.16 nM

**Q.** And the “Max Signal Value (OD450)” value (human Claudin18.2 [3])?
**A.** 0.8 OD450

B5: mouse antibody 2C6.9 (antibody, V domains shown)
VH: QVQLKESGPGLVAPSQSLSITCTVSGFSLTRYGVSWVRQPPGKGLEWLGVIWGDGNTNFHSFLKSRLSISKDSSKSQVFLKLNSLQTDDTATYYCARVNFGNALDYWGQGTSVTVSS
VL: DIVMTQSPSSLTVTAGEEVTMSCKSSQSLLNSGNQKNYLTWYQQKPGQPPKLLIYWASTRDSGVPDRFTGSGSGTDFTLTISSVQSEDLAVYYCQNDFIFPLTFGAGTKLELK
notes: Purified from hybridoma; also called 2C6.9.2
**Q.** What does the source list for B5?
**A.** EC50 (human Claudin18.2 [14]): 10.6 nM; Max MFI (human Claudin18.2 [14]): 6.11e+06 MFI; binding result (human Claudin18.1 [15]): no binding
